Experimental findings from US20110256557A1, “IDENTIFYING PARATHYROID HORMONE AGONISTS AND ANTAGONISTS” (DISCOVERYBIOMED, INC., priority 2008, published 2011) are described below.

The target of test [1] is T1, PTH1R on cell surface (Homo sapiens, UniProt Q03431).
T1 construct: HA; expressed in transfected cells; LRP6N-IgG conditioned medium came from transfected HEK 293 cells
T1 sequence (Q03431 27-593): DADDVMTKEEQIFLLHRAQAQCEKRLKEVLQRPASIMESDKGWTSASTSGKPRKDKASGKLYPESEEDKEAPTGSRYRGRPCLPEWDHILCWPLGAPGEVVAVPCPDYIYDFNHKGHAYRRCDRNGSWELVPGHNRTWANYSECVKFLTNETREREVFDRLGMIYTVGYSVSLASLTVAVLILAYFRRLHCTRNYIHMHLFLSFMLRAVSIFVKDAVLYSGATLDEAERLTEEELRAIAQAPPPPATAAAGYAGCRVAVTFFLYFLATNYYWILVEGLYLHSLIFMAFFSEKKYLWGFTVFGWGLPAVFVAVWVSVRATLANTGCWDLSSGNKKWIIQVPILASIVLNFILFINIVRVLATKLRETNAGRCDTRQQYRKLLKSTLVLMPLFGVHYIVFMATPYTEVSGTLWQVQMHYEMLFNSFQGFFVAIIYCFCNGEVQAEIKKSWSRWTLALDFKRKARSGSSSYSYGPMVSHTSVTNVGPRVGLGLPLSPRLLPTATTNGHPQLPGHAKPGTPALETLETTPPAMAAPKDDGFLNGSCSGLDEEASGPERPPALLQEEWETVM
As to the kind of experiment: Cell surface binding by immunofluorescence colocalization assay. It counts as cell-based. As for the experimental part:
Cells were transfected with HA-PTH1R and treated with IgG conditioned medium or LRP6N-IgG conditioned medium for 1 hour followed by PTH (1-84) treatment for 15 minutes. Cells were then washed with phosphate buffered saline (PBS), fixed with 4% paraformaldehyde, permeabilized with 0.1% Triton X-100, and incubated with primary antibody followed by incubation with chromophore-conjugated secondary antibody. Digital pictures were taken using an Olympus, IX TRINOC camera fitted to an Olympus, IX70 Inverted Research Microscope (Olympus; Center Valley, Pa.) with objective lenses of Hoffman Modulation Contrast®, HMC 10 LWD PL FL, 0.3NA ∝/1, at room temperature, and processed using MagnaFire® SP imaging software. A […] TCs SP2 system was used for confocal imaging. The ratios of the number of cells showing in green to the number of cells showing in red were calculated. For each treatment, 100 cells on each of three different slides were analyzed.

The test system of test [2] is luciferase reporter bearing TCF/LEF binding elements. As to the kind of experiment: TCF/LEF luciferase reporter assay in UMR-106 cells. Conditions: UMR-106 cells treated with PTH. It counts as cell-based, rat. The text has this:
HEK293, UMR-106 and mouse embryonic fibroblast (MEF) cells were maintained in Dulbecco's Modified Eagle Medium (DMEM) with 10% Fetal Calf Serum (FCS). Mouse Wnt3a conditioned medium (Wnt3a CM) was produced from mouse L cells stably transfected with mouse Wnt3a (American Type Culture Collection; Manassas, Va.) and control conditioned medium (Control CM) was from non-transfected L cells. IgG, LRP6N-IgG, DKK1, Sclerostin, VSVG-LRP6N and Myc-Fz8CRD conditioned media were produced from HEK 293 cells transfected with the individual plasmids. Transfections were carried out using lipofectamine reagent (Invitrogen; Carlsbad, Calif.). Luciferase assays were carried out in either UMR-106 or HEK 293 cells as described previously (Wan et al., Am. J. Pathol. 166:1379-92 (2005)), with 0.3 μg of TCF-Luc reporter plasmid plus 50 ng of Renilla luciferase plasmid (internal control) per well in the 12-well plate. Experiments were repeated at least three times with triplicate for each experiment.
A general note: In a reporter assay the amount or activity of a reporter protein is the signal.

In test [3] the target is T2, LRP6-PTH1R complex (Rattus norvegicus, UniProt P25961).
T2 construct: endogenous LRP6 and endogenous PTH1R in UMR-106 cells; endogenous in cells; host or cells: UMR-106
T2 sequence (P25961 27-591): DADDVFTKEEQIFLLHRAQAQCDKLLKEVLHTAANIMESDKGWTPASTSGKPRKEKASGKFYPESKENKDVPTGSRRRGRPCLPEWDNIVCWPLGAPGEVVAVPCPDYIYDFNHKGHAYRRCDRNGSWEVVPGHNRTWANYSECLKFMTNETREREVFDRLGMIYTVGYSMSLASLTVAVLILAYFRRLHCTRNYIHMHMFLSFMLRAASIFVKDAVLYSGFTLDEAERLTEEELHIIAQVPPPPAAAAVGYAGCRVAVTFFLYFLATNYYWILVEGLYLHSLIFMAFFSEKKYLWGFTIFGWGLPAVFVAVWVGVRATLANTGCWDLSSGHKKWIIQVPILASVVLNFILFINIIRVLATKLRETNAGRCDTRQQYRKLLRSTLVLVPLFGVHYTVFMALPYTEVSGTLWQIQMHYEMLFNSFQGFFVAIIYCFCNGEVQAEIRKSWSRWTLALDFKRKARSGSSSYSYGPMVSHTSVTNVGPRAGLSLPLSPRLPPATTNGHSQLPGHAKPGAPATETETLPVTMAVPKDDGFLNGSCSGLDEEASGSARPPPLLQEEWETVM
As to the kind of experiment: Co-immunoprecipitation of endogenous LRP6 and PTH1R in UMR-106 cells. It counts as cell-based. The procedure: (§1) Cells were harvested in cavitation buffer (5 mM HEPES, pH 7.4, 3 mM MgCl2, 1 mM EGTA, 250 mM sucrose) containing protease and phosphatase inhibitors and homogenized by nitrogen cavitation (200 p.s.i., for 5 minutes) in a cell disruption bomb (Parr Instrument Co.; Moline, Ill.). The cell homogenate was centrifuged twice at 700 g for 10 minutes to pellet the nuclei. The supernatant was further centrifuged at 100,000 g (Beckman SW50.1 rotor) for 1 hour to separate the membrane and cytosol fractions, and the resulting membrane pellet was washed three times with cavitation buffer before use in the assays (Zhang et al., Biochem. J. 343:541-9 (1999)). Immunoprecipitation and Western blot analysis of cell lysates were performed as described previously (Wan et al., Am. J. Pathol. 166:1379-92 (2005)).

The subject of test [4] is LRP6. As to the kind of experiment: LRP6 phosphorylation at PPPSP motifs, western blotting with Ab1490, UMR-106 cells. It counts as cell-based, rat. As to conditions: endogenous LRP6; cells not given. As for the experimental part: as §1
As phosphorylation of LRP6 at the PPPSP motifs plays a crucial role in activating downstream β-catenin signaling by Wnt, whether PTH induces phosphorylation of LRP6 at PPPSP motifs (Mao et al., Mol. Cell. 7:801-9 (2001); Tamai et al., Mol. Cell. 13:149-56 (2004); Davidson et al., Nature 438:867-72 (2005); Zeng et al., Nature 438:873-7 (2005)). Immunoprecipitated LRP6 from extracts of PTH-treated UMR-106 cells were monitored for their phosphorylation, by western blotting, with an antibody that recognizes phosphorylated PPPSP motifs (Ab1490) (Tamai et al., Mol. Cell. 13:149-56 (2004)). […] Phosphorylation of PPPSP motifs is required for axin recruitment from cytoplasm to LRP6 at cell membrane. […] Fz8CRD, a competitive inhibitor of the Wnt receptor Fz (Hsieh et al., Proc. Natl. Acad. Sci. USA 96:3546-55 (1999)), was used to exclude the possibility that these PTH effects are mediated through promotion of Wnts production or sensitization of Wnt-stimulated signaling. […] In contrast, LRP6N blocked PTH-stimulated LRP6 phosphorylation (FIG. 33).
(In general: Immunoblotting shows a protein as a band on a membrane.)

B1: LRP6N-IgG: LRP6 extracellular domain fused with IgG (protein)
chain: APLLLYANRRDLRLVDATNGKENATIVVGGLEDAAAVDFVFSHGLIYWSDVSEEAIKRTEFNKTESVQNVVVSGLLSPDGLACDWLGEKLYWTDSETNRIEVSNLDGSLRKVLFWQELDQPRAIALDPSSGFMYWTDWGEVPKIERAGMDGSSRFIIINSEIYWPNGLTLDYEEQKLYWADAKLNFIHKSNLDGTNRQAVVKGSLPHPFALTLFEDILYWTDWSTHSILACNKYTGEGLREIHSDIFSPMDIHAFSQQRQPNATNPCGIDNGGCSHLCLMSPVKPFYQCACPTGVKLLENGKTCKDGATELLLLARRTDLRRISLDTPDFTDIVLQLEDIRHAIAIDYDPVEGYIYWTDDEVRAIRRSFIDGSGSQFVVTAQIAHPDGIAVDWVARNLYWTDTGTDRIEVTRLNGTMRKILISEDLEEPRAIVLDPMVGYMYWTDWGEIPKIERAALDGSDRVVLVNTSLGWPNGLALDYDEGKIYWGDAKTDKIEVMNTDGTGRRVLVEDKIPHIFGFTLLGDYVYWTDWQRRSIERVHKRSAEREVIIDQLPDLMGLKATNVHRVIGSNPCAEENGGCSHLCLYRPQGLRCACPIGFELISDMKTCIVPEAFLLFSRRADIRRISLETNNNNVAIPLTGVKEASALDFDVTDNRIYWTDISLKTISRAFMNGSALEHVVEFGLDYPEGMAVDWLGKNLYWADTGTNRIEVSKLDGQHRQVLVWKDLDSPRALALDPAEGFMYWTEWGGKPKIDRAAMDGSERTTLVPNVGRANGLTIDYAKRRLYWTDLDTNLIESSNMLGLNREVIADDLPHPFGLTQYQDYIYWTDWSRRSIERANKTSGQNRTIIQGHLDYVMDILVFHSSRQSGWNECASSNGHCSHLCLAVPVGGFVCGCPAHYSLNADNRTCSAPTTFLLFSQKSAINRMVIDEQQSPDIILPIHSLRNVRAIDYDPLDKQLYWIDSRQNMIRKAQEDGSQGFTVVVSSVPSQNLEIQPYDLSIDIYSRYIYWTCEATNVINVTRLDGRSVGVVLKGEQDRPRAVVVNPEKGYMYFTNLQERSPKIERAALDGTEREVLFFSGLSKPIALALDSRLGKLFWADSDLRRIESSDLSGANRIVLEDSNILQPVGLTVFENWLYWIDKQQQMIEKIDMTGREGRTKVQARIAQLSDIHAVKELNLQEYRQHPCAQDNGGCSHICLVKGDGTTRCSCPMHLVLLQDELSCGEPPTCSPQQFTCFTGEIDCIPVAWRCDGFTECEDHSDELNCPVCSESQFQCASGQCIDGALRCNGDANCQDKSDEKNCEVLCLIDQFRCANGQCIGKHKKCDHNVDCSDKSDELDCYPTEEPAPQA
modifications: left off: a dimerising Fc or GST
Turning to B1, the “immuno-colocalization with PTH1R on cell surface” value in test [1] (with addition of PTH ligand (PTH (1-84), 15 minutes)) is recorded as 82.3%; in test [1] (without PTH ligand, cells transfected with HA-PTH1R), 22.8%.

B2: LRP6N: soluble N-terminal (extracellular) domain of LRP6; acts as a dominant-negative in PTH signaling (protein)
chain: APLLLYANRRDLRLVDATNGKENATIVVGGLEDAAAVDFVFSHGLIYWSDVSEEAIKRTEFNKTESVQNVVVSGLLSPDGLACDWLGEKLYWTDSETNRIEVSNLDGSLRKVLFWQELDQPRAIALDPSSGFMYWTDWGEVPKIERAGMDGSSRFIIINSEIYWPNGLTLDYEEQKLYWADAKLNFIHKSNLDGTNRQAVVKGSLPHPFALTLFEDILYWTDWSTHSILACNKYTGEGLREIHSDIFSPMDIHAFSQQRQPNATNPCGIDNGGCSHLCLMSPVKPFYQCACPTGVKLLENGKTCKDGATELLLLARRTDLRRISLDTPDFTDIVLQLEDIRHAIAIDYDPVEGYIYWTDDEVRAIRRSFIDGSGSQFVVTAQIAHPDGIAVDWVARNLYWTDTGTDRIEVTRLNGTMRKILISEDLEEPRAIVLDPMVGYMYWTDWGEIPKIERAALDGSDRVVLVNTSLGWPNGLALDYDEGKIYWGDAKTDKIEVMNTDGTGRRVLVEDKIPHIFGFTLLGDYVYWTDWQRRSIERVHKRSAEREVIIDQLPDLMGLKATNVHRVIGSNPCAEENGGCSHLCLYRPQGLRCACPIGFELISDMKTCIVPEAFLLFSRRADIRRISLETNNNNVAIPLTGVKEASALDFDVTDNRIYWTDISLKTISRAFMNGSALEHVVEFGLDYPEGMAVDWLGKNLYWADTGTNRIEVSKLDGQHRQVLVWKDLDSPRALALDPAEGFMYWTEWGGKPKIDRAAMDGSERTTLVPNVGRANGLTIDYAKRRLYWTDLDTNLIESSNMLGLNREVIADDLPHPFGLTQYQDYIYWTDWSRRSIERANKTSGQNRTIIQGHLDYVMDILVFHSSRQSGWNECASSNGHCSHLCLAVPVGGFVCGCPAHYSLNADNRTCSAPTTFLLFSQKSAINRMVIDEQQSPDIILPIHSLRNVRAIDYDPLDKQLYWIDSRQNMIRKAQEDGSQGFTVVVSSVPSQNLEIQPYDLSIDIYSRYIYWTCEATNVINVTRLDGRSVGVVLKGEQDRPRAVVVNPEKGYMYFTNLQERSPKIERAALDGTEREVLFFSGLSKPIALALDSRLGKLFWADSDLRRIESSDLSGANRIVLEDSNILQPVGLTVFENWLYWIDKQQQMIEKIDMTGREGRTKVQARIAQLSDIHAVKELNLQEYRQHPCAQDNGGCSHICLVKGDGTTRCSCPMHLVLLQDELSCGEPPTCSPQQFTCFTGEIDCIPVAWRCDGFTECEDHSDELNCPVCSESQFQCASGQCIDGALRCNGDANCQDKSDEKNCEVLCLIDQFRCANGQCIGKHKKCDHNVDCSDKSDELDCYPTEEPAPQA
modifications: left off: a dimerising Fc or GST
notes: soluble N-terminal (extracellular) domain of LRP6; acts as a dominant-negative in PTH signaling
In the case of B2, the “effect on PTH-stimulated TCF/LEF luciferase (transcriptional) activity” value in test [2] was “inhibited”. Besides, in test [3], the “effect on PTH-induced association of endogenous LRP6 with PTH1R” value was “blocked”. Besides, the “effect on PTH-stimulated LRP6 phosphorylation” value in test [4] is on record as “blocked”.
